Data reported in the DeepSol protein solubility set.

Experiment: soluble on expression in E. coli; label from the status in PepcDB or PDB records

MGSDKIHHHHHHMEGIKMRSVVVKEPGQLNIESRPVPVPGAHEVRVKIAFAGICGSDVHIYHGHNPFAKYPRVIGHEFYGIIDAVGEQVSPARIGERVAVDPVVSCGHCYPCSVGRPNVCTQLQVIGVHRDGGFSDYACVPAKNAWRIPEAISDRQATMVEPFTIAANITAQLQPTAQDIALVYGAGPMGLTIIQALKGVYGVKQVIVVDRIAERLQMARENGADLTLDNTDQPLAEQLAQRQLAPTLVIDAACHPAILQEAILLASPAARIGILGFSGEASTLTQQSITSKEISIFSSRLNSGRFPLVIDWMEKGLIRPEALITHCMPLEQVKEAMEIFANDRKTCCKVLLQLG
soluble on expression in E. coli: not soluble

MNKLSRTDEENRQTEFSSSPLSDSVHSCLGFNRKKERKRRTSGDIEQTDKRKRTEERPSDKITFASNVFDNLARVTAERDNPEKLSKYKNIPGVGTRENIDEGISDINQPSSKSSGVKSKYVEVMSLFQKSIQKFSIMNLDYMYTFDWNHYSKKNIQYVVFTKVCQSHAPGHFVEMLKEDCSCRDCGSADLAVKVRLTVPLDLSDIPIPCSEDIQIHVSFLADDLLERHISSNVNRSSNRDDLDFSRRTCEKMYDLYQKMMRGQSSRMYTEWFDKCKIFVKNFLFSKSLHLYHGNVIRRKIEESQTLNKRRCFIFAQIFDLE
soluble on expression in E. coli: not soluble

MGSDKIHHHHHHMKIRVDIIGLKGGVGKTTIALNTALYLSKRYKVLYIDKDLLSMGSLILGFNGLGFNKAIVEGLGNEQYEYKVNNNLTLFKLYSDPVNERELQHKVKGMGEKAERAYVDVVSKGYDVIIVDYGRIFRTNDPLVYDEYEMFKKNFPDYTIAAAGITDAIRNDVTDVVKYFLDTINRIKAKPLAFVINMVPQIGDIQKEINQIVREISEVVKCDILTIPFNEKLVQYANMGEVEEMQKVGKLIERILSNG
soluble on expression in E. coli: not soluble

MLVVPAIDLFRGKVARMIKGRKENTIFYEKDPVELVEKLIEEGFTLIHVVDLSNAIENSGENLPVLEKLSEFAEHIQIGGGIRSLDYAEKLRKLGYRRQIVSSKVLEDPSFLKSLREIDVEPVFSLDTRGGRVAFKGWLAEEEIDPVSLLKRLKEYGLEEIVHTEIEKDGTLQEHDFSLTKKIAIEAEVKVLAAGGISSENSLKTAQKVHTETNGLLKGVIVGRAFLEGILTVEVMKRYAR
soluble on expression in E. coli: soluble

SLYANYKRVYENEALETLKVYTTFLRNALIEVNTLMVHSQHFYKSFMGNLKYILDSVAVNKLKSNYNKDMPVVVVSAGPSLEKNIRFLKDCQDKCIIITGGRTLKTLLDLDIKPDYVCVVDPDVPAYDVMRGTFDCTAPLLFCEYTYYEILRDYKGEKIFFNDIGMLGLQKEFLNYDVDNIFEGGSVAHVCAGLGVYIGGDPIIFIGQDLAYTNDKAHADSAGDTNVEGDKKIVYVEDINGDIIKSDSVLNFYRIKLEEMTQLFKENNFINSTEGGANIKGTKIIPLKEVLKKFCLNKKKDYTLGENIGKYVSREQVVCKLMDAKKIMNKVKKEIEASIDLCSEFLEKENRWNKTIIDNINRKLSKTDKLINSSIGEMEFMRNLILPNIYESSMNKEYKQKYNETEKEKIKRVYKKNILLYNGIKTSIMEAGPEIEKCIKSLKES
soluble on expression in E. coli: not soluble

MGSDKIHHHHHHMSRESALSRASRYFEAGDFQSDLAHLVTYRSESQNTAPEARMECRRYLEEAMLPRLRALGFDCEIIDNPDPTGGPLLIGERREGEALPTILTYGHGDAVLGQEGRWREGLEPWVLVEEGDRLYGRGTADNKGQHLINIAALEAVLAERGHLGFNTRIVIEMSEEVGSVGLPDVFRAYKDRLTADVLIASDGPRLQPDVPTMFMGSRGGTTFDLVVETHEGAHHSGNWGGLLSDPAMILAHALACITDVRGQIKVPEWRPDSLTENVRMALRDLPVAGGQGPAVNPDWGEEDLTPAERVFGWNSFTVLAMVSGVPEAPVNAISGWARATCQLRYVVGTDPEDVVPALRRHLDAHGFESVEIRCHERGFFAATRLDPDHPWAQFVGESIRRTSGALHVLPNLAGSLPNDSFTDILEVPTIWVPHSYRGCSQHAPNEHVLKSVYHDALRVMAGVFWDLGEQGGPLA
soluble on expression in E. coli: not soluble

MSLKVLVTGGAGYVGTELVLKLAKDPSISKVVVFDNLSRENYNLFINSAQRIAKDKIQFEFGDLLDSRKIRKILADIDVVYHLAARVSTPFANADSHLYEQVNHWGTAELVYAIEEIKTVQKLIYVSSCSVYGSGKELIDENSVVNPKTIYGVSKMRGEEHVSRLGNKMNAVIIRLGNVYGYSSSMRFDAVINKFMFESHYKNRISIHGNGRQSRSFIHVDKAVDSLVKITSTDIPSGTYNLTERNLEIYDLIDQVKDLYPTLEFIFINQHLELREQKINPETKLLKYIPLQQTDFTAELAAFRDHFTFQTTSEGHHHHHH
soluble on expression in E. coli: soluble

MSLSTLLISAPHLAFKIIATGVSLPPDRVESSTLDRKLNKPVGYVEQRSGVRHRYHATADANQAELAAAALHDALERHGINPSSIDLLISASAIAYQALPCTAVHILKIAGLAPRIAGFDINSSCVSFISALQVAAGLLNAGTYQRIAIVSADLASRGIDWNDEESSLIFGDGAACAIVERGDGRSGILASLVEMYPTGSELCEIRAGGTRCNPRSGMDNDDFLFHMQGKRLFRQASGIIEDYFQRLLEKSGLTLADIATVIPHQASHLSLAHMRKRLHVPTDVLVDIYRDHGNQVAASIPTALHAAVMSGRFSPGKPVMLIGTAAGLTLAGMVLLEGHHHHHH
soluble on expression in E. coli: not soluble

MSLCRRRLATWLLDGSQPPTLLLPEQEGINGIRFPIWLDENGKRVAADCPQARQEMINVWPLPLEPWLPASERRAVRLPPASTSCPPYGHDAQLPLQLTGVRDGAIIKRLPGAAEATLPLQSSGGAGERWWFLNGEPLTERGRNVTLHLTDKGDYQLLVMDDVGQIATVKFVMQEGHHHHHH
soluble on expression in E. coli: soluble

MVFDRQMKRGQRDWAVRQPDFKAAQYLKEEIGWRVADKVFDLTKFNPLVLDIGCGVGHIAPHLIKENVGKIIQVDMSGGMAQSSAKCEDPEVIVERRTVDEETLDGFHENQFDLLLTSMSAHWINHLPQWMRKCHDIVKPDCPFIGSMLAEDTLYELRCSLQLAELERIGGVSSHISPFVKTQDIGGLLSSAGFDMITLDSDEIQVGYPNMFALMYDLQLMGESHCTHRRNPTIRRDVLVAAEAIYQSMYSSDGKYPATFKIVSFIGWKPGPNMPKAAKRGSQTVSLKDIGKIVEDPEMMRKMSEKDGVDKKK
soluble on expression in E. coli: not soluble

MGSDKIHHHHHHVKKSESLPVLIVTGLSGAGKSTVLNVFEDLRFFTIDGLPVGVVADLLEHLARDAMGRYRGVVLGMDLRQFDFLDEFEGALMRLEKMGVSPRIIYLEADSDTLVRRFATTRRPHPLEGGDLGLEAAVEHERNLLAPVRERADLILDTSEFSIHDLRRIVQKKWSSLGGSLRSLRVNLITFGFKYGVPSDADMVFDLRFLPNPYFDAKLKALSGKDPEIQQFVLGCEQGKTFFKRFLDFLLFLLPQYEAEGRYRITLAIGCTGGRHRSVSTAEALRDALKKSDYAVSLEHRHIDLG
soluble on expression in E. coli: not soluble

MKYRVETNPFSKDRYNPEQLEMFKNRQLSKDKAEVFFTRLYNQHIAWVIIANVMTEYVIKFRKSATSFEEAWDALDYQRTTEIVFRAVNGLPCSEKDSGELETYLSEEQHEKH
soluble on expression in E. coli: not soluble

MSEPLIVGIRHHSPACARLVKSLIESQRPRYVLIEGPADFNDRVDELFLAHQLPVAIYSYCQYQDGAAPGRGAWTPFAEFSPEWQALQAARRIQAQTYFIDLPCWAQSEEEDDSPDTQDESQALLLRATRMDNSDTLWDHLFEDESQQTALPSALAHYFAQLRGDASGDALNRQREAFMARWIGWAMQQNNGDVLVVCGGWHAPALAKMWRECPQKINKPELPSLADAVTGCYLTPYSEKRLDVLAGYLSGMPAPVWQNWCWQWGLQKAGEQLLKTILTRLRQHKLPASTADMAAAHLHAMALAQLRGHTLPLRTDWLDAIAGSLIKEALNAPLPWSYRGVIHPDTDPILLTLIDTLAGDGFGKLAPSTPQPPLPKDVTCELERTAISLPAELTLNRFTPDGLAQSQVLHRLAILEIPGIVRQQGSTLTLAGNGEERWKLTRPLSQHAALIEAACFGATLQEAARNKLEADMLDAGGIGSITTCLSQAALAGLASFSQQLLEQLTLLIAQENQFAEMGQALEVLYALWRLDEISGMQGAQILQTTLCATIDRTLWLCESNGRPDEKEFHAHLHSWQALCHILRDLHSGVNLPGVSLSAAVALLERRSQAIHAPALDRGAALGALMRLEHPNASAEAALTMLAQLSPAQSGEALHGLLALARHQLACQPAFIAGFSSHLNQLSEADFINALPDLRAAMAWLPPRERGTLAHQVLEHYQLAQLPVSALQMPLHCPPQAIAHHQQLEQQALASLQNWGVFHV
soluble on expression in E. coli: not soluble

MGSDKIHHHHHHEIRENLLGNYSDRVLVVSHRADWRNAPENSLQGIRNCIDMGVDMVEIDLKKTKDGHLVIMHDKTINRTMTGKGNAEDYTLAELKAMRLKNGAGCKTRHQIPTLEEVMLLCKGKIMVNIDKGYDYFQEAYAVLEKTGTIDHCVIKAGLPYERVKAENGDVLDKVIFMPIVNLHKEGAEKIINDYQSHMKPTAYELVFNDDNEEILRLIRKVRDSGAKLFINSLWPELCGGHDDDRAVELHQPDESWGWILNQGAKLIQTDRPALLLEYLRKKKLHD
soluble on expression in E. coli: not soluble

MIITDVEVRVFRTTTRRHSDSAGHAHPGPAHQVEQAMLTVRTEDGQEGHSFTAPEIVRPHVIEKFVKKVLIGEDHRDRERLWQDLAHWQRGSAAQLTDRTLAVVDCALWDLAGRSLGQPVYKLIGGYRDKVLAYGSIMCGDELEGGLATPEDYGRFAETLVKRGYKGIKLHTWMPPVSWAPDVKMDLKACAAVREAVGPDIRLMIDAFHWYSRTDALALGRGLEKLGFDWIEEPMDEQSLSSYKWLSDNLDIPVVGPESAAGKHWHRAEWIKAGACDILRTGVNDVGGITPALKTMHLAEAFGMECEVHGNTAMNLHVVAATKNCRWYERGLLHPFLEYDDGHDYLKSLSDPMDRDGFVHVPDRPGLGEDIDFTFIDNNRVR
soluble on expression in E. coli: soluble

MLGVLKKVFDPNKRQLARLEKIADQVDALGPEMARLSDEQLRQKTEEFKARYQQGESLDDLLVEAFAVVREGAKRVLGLYPYKVQIMGGVVLHEGDIAEMKTGEGKTLTATMPVYLNALTGRGVHVVTVNEYLATRDATEMGKLYEFLGMTVGLNLSGMSREEKQAAYNADITYGTNNEFGFDYLRDNMVLYKEHIVQRPLYYAIIDEVDSILIDEARTPLIISGTAQKSTKLYVQANAFVRTLRKDVDYTYDEKTKSVQLTEEGINKAERAFGIDNLFDLKHVTLNHHIQLALRAHVTMQRDVDYVVQDGKVIIVDPFTGRLMHGRRYSDGLHQAIEAKEGLEIQNESMTLATITFQNYFRMYEKLAGMTGTAKTEEEEFRNIYNMRVVVIPTNRPVIREDRPDLIYRTMEGKFRAVVEDIAARHAKGQPVLVGTVAIETSEMLSEMLKKRGIPHNVLNAKNHAKEAEIIAQAGQKGAVTIATNMAGRGTDIKLGEGVKELGGLAVIGTERHESRRIDNQLRGRSGRQGDPGVSQFYLSLEDELMRRFGSESLMAMMDRLGMDDSQPIQSKMVTKAVESAQKRVEGNNFDARKQLLQYDDVLREQREIIYRQRYEVLDSDNLRGIIEKMIQSVIERVVNAHTPKEEVPEEWNLKGLVEYLNAHLLPEGDVTEADLRGKEPEEMIELIWAKVKARYDEKEAQIPPEQMREFERVVVLRAVDMKWMNHIDAMEQLRQGIHLRAYGQVDPLREYQMEGYAMFEEMIAAIEEEVATYIMKAEIHHNLERQEVAKGEAVHPKEDGEEPKRKPVRKAVRVGRNDPCPCGSGKKYKHCCGRTV
soluble on expression in E. coli: not soluble
